Measured values published in publication PMC4425231.

Key:
p50 dimerization domain = p50 dimerization domain (UniProt P25799); assay: AUC + SEC
[1] = target: IκBβ (endogenous, MEF cytoplasmic extract) (mouse (endogenous in MEFs)) (UniProt Q60778); assay: immunodepletion followed by deoxycholate EMSA
[2] = target: IκBβ (endogenous, MEF cytoplasmic extract) (mouse (endogenous in MEFs)) (UniProt Q60778); assay: kinetic model fitted to immunoblot abundances of IκBs in NFκB-knockout MEFs

Sequence of IκBβ (endogenous, MEF cytoplasmic extract) (mouse (endogenous in MEFs)) (Q60778 whole entry): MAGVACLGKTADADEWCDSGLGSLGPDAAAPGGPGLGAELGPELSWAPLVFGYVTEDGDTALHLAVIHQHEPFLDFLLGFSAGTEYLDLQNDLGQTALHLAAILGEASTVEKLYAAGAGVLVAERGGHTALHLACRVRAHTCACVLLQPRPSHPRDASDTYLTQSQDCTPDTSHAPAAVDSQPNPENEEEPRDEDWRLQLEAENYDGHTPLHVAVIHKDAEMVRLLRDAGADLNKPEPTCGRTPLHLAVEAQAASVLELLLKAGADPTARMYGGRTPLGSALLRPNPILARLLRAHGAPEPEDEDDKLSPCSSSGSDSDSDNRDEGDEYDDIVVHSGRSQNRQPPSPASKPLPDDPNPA
Sequence of p50 dimerization domain (P25799 1-431): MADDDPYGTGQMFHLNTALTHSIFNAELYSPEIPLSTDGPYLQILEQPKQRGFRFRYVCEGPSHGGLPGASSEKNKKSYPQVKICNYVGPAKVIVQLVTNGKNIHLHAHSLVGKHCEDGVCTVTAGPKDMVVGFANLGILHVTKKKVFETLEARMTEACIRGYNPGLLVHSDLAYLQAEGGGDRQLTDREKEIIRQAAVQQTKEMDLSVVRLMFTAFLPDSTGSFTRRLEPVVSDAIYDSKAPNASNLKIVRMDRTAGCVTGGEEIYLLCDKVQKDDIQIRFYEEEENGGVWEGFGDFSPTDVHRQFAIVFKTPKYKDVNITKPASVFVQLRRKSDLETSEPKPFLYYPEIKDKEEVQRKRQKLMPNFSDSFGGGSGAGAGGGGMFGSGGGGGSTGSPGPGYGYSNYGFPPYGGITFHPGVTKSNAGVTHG

Substance | Kd (p50 dimerization domain) | percent of the dimer bound to this IκB [1] | Kd [2]
RelA dimerization domain (from UniProt Q04207 1-549) (domain or fragment) | 10 nM |  | 
RelA:RelA homodimer (endogenous, MEF cytoplasmic extract) (from UniProt Q04207 1-549) (complex) |  | > 50% | 0.0032 nM
